Entries after “also recorded” stand apart in the source; their conditions may differ.
Tested on: gastric NET with lymph node and hepatic metastases
Assay: PET/CT imaging in a NET patient
Assay type: in vivo, human
Settings: [68Ga]Ga-DOTA-NOC 1 h pi, [68Ga]Ga-DATA5m-LM4 10 min–3 h pi
From the text: After a preceding PET/CT imaging with [^68Ga]Ga-DOTA-NOC ([^68Ga]Ga-DOTA-[1-Nal^3]octreotide), the patient underwent first PET/CT with [^68Ga]Ga-DATA^5m-LM4 on a dedicated GE Discovery 710 × 128 Slice PET/CT Scanner (GE HealthCare Technologies Inc.,/GE Healthcare, Chicago, IL, USA), with a 40 mm detector at a 0.35 s rotation speed and a 128-slice CT scanner. The images were corrected for random and scatter counts, decay correction and dead time correction. PET images were reconstructed with iterative reconstruction using ordered subset expectation maximization algorithm (OSEM) (2 iterations, 24 subsets). They were processed and analyzed with a dedicated commercially available workstation (GE Xeleris). Further details on the patient preparation, scan and data acquisition protocol are included in the Supplementary Materials.
Radiosynthesis of [68Ga]Ga-DATA5m-LM4 and [177Lu]Lu-AAZTA5-LM4 for Patient […]
For radiolabeling of DATA5m-LM4 with Ga-68, [68Ga]GaCl3 (200 MBq) obtained from a commercial [68Ge]Ge/[68Ga]Ga-generator (ITM Isotope Technologies Munich SE, Garching, Germany) was added in a vial containing a solution of DATA5m-LM4 (50 µg, 32.5 nmol) in 500 µL of 1 M sodium acetate buffer pH 4.5. The reaction mixture was heated for 15 min at 95 °C, affording [68Ga]Ga-DATA5m-LM4 in a radiochemical purity […]

Substance: [^68Ga]Ga-DOTA-[1-Nal^3]octreotide [[^68Ga]Ga-DOTA-NOC]
- uptake in liver metastases on PET/CT: mild to negligible uptake; also recorded: weak uptake

Reference: PMC10053881 (Pharmaceutics, 2023)
